From PMC9323360, “Cloning, Expression, Purification, and Characterization of β-Galactosidase from Bifidobacterium longum and Bifidobacterium pseudocatenulatum” (Molecules, 2022)

Substrate: O=[N+]([O-])c1ccccc1O[C@@H]1O[C@H](CO)[C@H](O)[C@H](O)[C@H]1O
Assay: purified protein

B1: BLGLB1 (Bifidobacterium longum) (protein)
chain: MTTRRTFRWPSLLTESGRGIAFGGDYNPDQWSEETLDEDIRLMVQAGVNTVALAIFSWDKIEPREGEFTFEWLDHVIDKLGAAGIAVDLASATATAPLWLYERHPEVLPIDRYGHVVNAGSRQSWQPTSPVLKEYALRLCRKLAEHYKDNPYVTAWHMGNEYGWNNRYDYSDNALAAFRTWCEAKYGTVDALNEAWGTAFWSQHVNSFDEVLLPRHMGGDSMVNPPQQLDYERFGNDMLLDFYKAERDAIEEICPGKPFTTNFMVSTDQCTMDYAQWANEVDFVSNDHYFHEGESHLDELACSDALMDSLALGKPWYVMEHSTSAVQWKPLNMRKRAGELMRDSLAHVAMGADAINFFQWRQSASGAEAFHSAMVPHAGSDTKLFRGVCELGAALKTLSDAGVQDTELKRADTAILFSAESEWATRSETLPSMKLNHWHDVRDWYRGYLDAGARADVVPLAYDWSGYQTIVLPTVIALSDEDTRRIADFAENGGTVIVGYATGLIDEHFHIGLGGYPGAGNGLLRDMLGIRSEEFNILGEEAEDEPAEIGLSNGLTTRLWQNDVTSVAPDTRVLATYVGTAAADWELDGVPAITSHPHGQGAAIYVGCDLGRHDITHLLKELNTTAPSDERAPDQRPGGGEINAATTTAAAATHDPRILHTIRQSSDGTIRFDFYLNRSKQPVAVNGVEGDPIIAHRCETDAVGYTLNRNAILIAKTSC
pH 5.5, 45 °C
  Km: 1900 ± 100 µM
  Vmax: 3700 ± 100 (oNPG)
  kcat: 1700 ± 40 s⁻¹
  kcat/Km: 870 (oNPG)

B2: BPGLB1 (Bifidobacterium pseudocatenulatum) (protein)
chain: MHRTFKWPELLTDNGKGIAYGGDYNPDQWSEDVWDEDVRLMKQAGVNTVAVAIFSWDRIQPEENRWDFGWLDRIIDKLGKAGIAVDLASATATAPLWLYEKHPEVLPQDKFGHPVNAGSRQSWSPTSPVFKEYALTLCRKLAERYGTNPYVTAWHMGNEYGWNNRYDYSDNALNAFRLWCERKYGTIENLNKAWGTTFWGQEMNGFHEVLIPRFMGADSMVNPGQKLDFERFGNDMLLDFYKAERDAIAEICPDKPFTTNFMVSTDQCCMDYADWAEEVDFVSNDHYFHEGESHIDELFCSDALMDSLALGKPWYVMEHSTSAVQWKPLNARKRKGETVRDSIAHVAMGADAINFFQWRASAFGAESFHSALVPHAGEDTKLFRQVCELGAALKTLGDAGVQGTELEQSDTAILFSAESEWATRSETLPSMKLNHWHDVRDWYRAFLNAGTRADIVPLKYDWNAYKTVVLPTVIMLSAEDTQRLADFAAAGGRVVIGYATGLIDENFHTWLGGYPGAGDGLLREMLGIRGEEFNILGAEAEGEPSEIRLSSGAVTRLWQNDVNVDGERAQVLATYEGEEADEWELDGTAAITRNPYGSGETYFVGCDLNVADLTEFVRENIVEDSANVANPADSDVLHTVRKSADATFDFYLPRGKKEIALQGIEGEPIYLFQAEAEERTGSYTVHRNGVLVVKRA
pH 6.0, 45 °C
  Km: 1300 ± 300 µM
  Vmax: 1.1 ± 0.1 (oNPG)
  kcat: 0.5 ± 0.02 s⁻¹
  kcat/Km: 0.36 (oNPG)
